# Source: the supplement of paper PMC10724198
# ± gives the standard deviation of the averaged measurements.
# Test system: Saccharomyces cerevisiae
# Experiment: protein stability index of tFT-peptide fusion (C-terminal peptide) (PSI (0-1 scale)); higher = more stable (slower turnover)
# Conditions: genetic background: wild type; temperature: 30 C
# Method: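 Multiplexed protein stability (MPS) profiling in S. cerevisiae. Random 12-aa peptides (tFT-X12 library) are fused to the C-terminus of a sfGFP-mCherry tandem fluorescent timer, after mCherry and a GGGS linker. Cells are FACS-sorted into 8 mCherry/sfGFP bins and deep-sequenced. The protein stability index (PSI) is the read-weighted bin average, scaled from 0 (unstable) to 1 (stable). Only peptides with >10 reads are reported; cells were grown at 30 °C in SC-His with glucose.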
# 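Note: PSI is a weighted mean of sequencing reads over stability bins, variants kept only with over 10 reads, mCherry proximal and sfGFP distal, peptide attached via GGGS linker.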
row,Sequence,protein stability index
1,GAPTRSYGERKR,0.647 ± 0.0097
2,GARRLGLMVFDG,0.669 ± 0.066
3,GARRSAVPWSPK,0.723 ± 0.018
4,GASGGRIGEGEE,0.679 ± 0.011
5,GASSLGVNGGSV,0.6954 ± 0.0021
6,GAVAAVPRGGIL,0.715 ± 0.018
7,GAVHLNSLPVTK,0.6983 ± 0.0044
8,GAVSRRALPRRP,0.709 ± 0.016
9,GAVSVVFGWTDV,0.672 ± 0.021
10,GAVWAWRRLKGG,0.619 ± 0.035
11,GCASAAMFPEEL,0.691 ± 0.053
12,GCCGGRLWEGGG,0.707 ± 0.013
13,GCCWGCRIGEAV,0.6557 ± 0.0052
14,GCEGGGRVGSWT,0.742 ± 0.028
15,GCEGGWLGEGIG,0.593 ± 0.014
16,GCFLSERLFTPL,0.7304 ± 0.00085
17,GCGAMGWAVPAA,0.655 ± 0.041
18,GCGEGVGASVGR,0.641 ± 0.011
19,GCGGLCQGGGGW,0.704 ± 0.084
20,GCGGVEAVGGVC,0.586 ± 0.025
21,GCLLVVAGGGRG,0.698 ± 0.069
22,GCLPGGKRESRG,0.647 ± 0.11
23,GCLRLCYQHWSP,0.6764 ± 0.005
24,GCRDQKLGVGVD,0.759 ± 0.064
25,GCRGEGGWVGRG,0.6955 ± 0.0029
26,GCRGWRSVGRGR,0.644 ± 0.025

row,Sequence,protein stability index
1,GCRLVEGAVRLE,0.686 ± 0.048
2,GCRSQRSDSLMM,0.644 ± 0.028
3,GCSLWAVRTWGL,0.699 ± 0.01
4,GCSPTLMVSFIA,0.572 ± 0.037
5,GCVGGGWRHVGV,0.725 ± 0.059
6,GCVGGWCGGSGA,0.698 ± 0.083
7,GCWAGLGAPGVS,0.71 ± 0.027
8,GCWGAGESTLGG,0.724 ± 0.0084
9,GCWGEWGWVGRG,0.696 ± 0.035
10,GCWVNFLLTHFF,0.527 ± 0.024
11,GDASLSSLHIRL,0.642 ± 0.02
12,GDCIDCFKLVGI,0.711 ± 0.035
13,GDEDVSWLVFMG,0.762 ± 0.024
14,GDGGGCWSGVGW,0.643 ± 0.1
15,GDGGGMVEGLSR,0.66946 ± 0.00014
16,GDIQRSNNFTIG,0.779 ± 0.05
17,GDMKCVTRDSFI,0.638 ± 0.054
18,GDMSIWRSNNIT,0.6723 ± 0.00088
19,GDRGIKAYGVRG,0.65 ± 0.015
20,GDRTIALFFFTI,0.671 ± 0.024
21,GDSESRTWCQNL,0.548 ± 0.02
22,GDSKTKDEMYKI,0.6867 ± 0.0045
23,GDTVLLCDLASC,0.687 ± 0.0092
24,GDVLLLVGAGER,0.706 ± 0.1
25,GDYGRLINLVTR,0.6815 ± 0.0059
26,GEAKAARNKRMI,0.708 ± 0.024

row,Sequence,protein stability index
1,GEAREEEKKGRW,0.631 ± 0.027
2,GEERRGRCGEKQ,0.597 ± 0.087
3,GEGGEGWGCFSF,0.677 ± 0.021
4,GEGKAGGESEEP,0.62 ± 0.068
5,GEGRAAGEIGGV,0.707 ± 0.033
6,GEGRRYVVVTEG,0.693 ± 0.035
7,GEGVRGGEWGLD,0.717 ± 0.053
8,GEKKKAILGKRK,0.62 ± 0.011
9,GEQLNWSREPWY,0.735 ± 0.038
10,GERKRQQRKREE,0.707 ± 0.064
11,GERLGEWGGGVG,0.669 ± 0.0093
12,GESGGGAVGGGW,0.64 ± 0.039
13,GEVRHCRVTVIA,0.539 ± 0.036
14,GFALVVGNLISF,0.636 ± 0.021
15,GFATCSFPVCRV,0.661 ± 0.027
16,GFCSGGVFVEWV,0.754 ± 0.065
17,GFGKRGKDQDTY,0.595 ± 0.033
18,GFGSSSFLCFSR,0.669 ± 0.042
19,GFHCRLRVSTFG,0.585 ± 0.019
20,GFLCFRWACVRL,0.487 ± 0.028
21,GFLWLLGGVLGV,0.658 ± 0.082
22,GFRVRCSICGSA,0.681 ± 0.073
23,GFTVVGCSYVTT,0.5572 ± 0.0023
24,GFYPGRSKGCLG,0.73 ± 0.05
25,GGAGLGVVLGWW,0.6833 ± 0.0062
26,GGAGSFVEKEID,0.69 ± 0.044

row,Sequence,protein stability index
1,GGALDQADGGRS,0.7269 ± 0.0014
2,GGALFVCSSVGR,0.681 ± 0.033
3,GGALLGGGAMGL,0.643 ± 0.037
4,GGARGDEGGGSA,0.761 ± 0.055
5,GGAWGHCSHEWS,0.6882 ± 0.0052
6,GGCAAGVGRLAV,0.624 ± 0.075
7,GGCCGRVWGSVE,0.71 ± 0.054
8,GGCEGIRAVGWV,0.716 ± 0.04
9,GGCEWWSWGRGG,0.729 ± 0.041
10,GGCGGGGGVVVR,0.7029 ± 0.0021
11,GGCNLLGRGPDF,0.694 ± 0.024
12,GGCQCFSFPWPP,0.712 ± 0.087
13,GGEGRGAFWGGE,0.68361 ± 0.0002
14,GGEYVGGRGCGL,0.682 ± 0.1
15,GGFASGLCGGVI,0.728 ± 0.087
16,GGFGVARVLYGL,0.712 ± 0.035
17,GGGAGGEAVRVW,0.655 ± 0.025
18,GGGARFGLGGRM,0.675 ± 0.027
19,GGGGAGFRGGIE,0.68 ± 0.0019
20,GGGGAGGRRGTQ,0.654 ± 0.0077
21,GGGGCRVRGLGA,0.684 ± 0.041
22,GGGGEVRAWGLR,0.71 ± 0.032
23,GGGGGGGGCGVI,0.77 ± 0.08
24,GGGGGGGGRARE,0.707 ± 0.09
25,GGGGGGGLGGAF,0.717 ± 0.026
26,GGGGGGGVGMMW,0.738 ± 0.02

row,Sequence,protein stability index
1,GGGGGGRLEGGA,0.66 ± 0.07
2,GGGGGGVRVARW,0.687 ± 0.07
3,GGGGGGVSLGGR,0.696 ± 0.072
4,GGGGGSRGVCLG,0.656 ± 0.063
5,GGGGGVCGACVV,0.685 ± 0.016
6,GGGGRGTAVVGV,0.66 ± 0.048
7,GGGGRGVGAGGG,0.652 ± 0.061
8,GGGGSAGAGGGG,0.6221 ± 0.0061
9,GGGIGWRAGEFG,0.673 ± 0.0016
10,GGGRGGGEWVGG,0.651 ± 0.043
11,GGGRGRWGPEGE,0.6902 ± 0.0043
12,GGGRGTGVEFGA,0.7 ± 0.03
13,GGGRGVGCMGCR,0.688 ± 0.015
14,GGGRPDRPQRAI,0.741 ± 0.026
15,GGGRRRVAGREL,0.701 ± 0.048
16,GGGRWGAGVKGV,0.645 ± 0.028
17,GGGRYCADDGGR,0.763 ± 0.051
18,GGGSLWWDVGYG,0.6649 ± 0.0016
19,GGGTLGQWCCDV,0.6835 ± 0.0029
20,GGGVGCRSRGAG,0.595 ± 0.025
21,GGGVLLRGGSGP,0.716 ± 0.053
22,GGGVWYFSWSFC,0.595 ± 0.045
23,GGGWGRAYSWWV,0.705 ± 0.012
24,GGGWSGRGVGDR,0.727 ± 0.078
25,GGGYHLGSCDKL,0.624 ± 0.025
26,GGHAAMGRRGRE,0.73 ± 0.14

row,Sequence,protein stability index
1,GGIRGITSRQPP,0.576 ± 0.019
2,GGIVGVSWLVRS,0.657 ± 0.03
3,GGLEVDWVGCGV,0.701 ± 0.012
4,GGLGSHWDCDGL,0.734 ± 0.093
5,GGLGVYQWVDSV,0.663 ± 0.02
6,GGLIWRHGVGRG,0.692 ± 0.018
7,GGLRPLFLCCLF,0.569 ± 0.05
8,GGLSGSRCTLFW,0.7342 ± 0.0069
9,GGLVWEESAGVR,0.7091 ± 0.0016
10,GGNMPNNCWSRI,0.698 ± 0.022
11,GGNSRASAVKGA,0.702 ± 0.1
12,GGNTQTNYHGCL,0.73227 ± 0.00035
13,GGPAWGRGGMYW,0.678 ± 0.034
14,GGPGWGVSGWEG,0.705 ± 0.015
15,GGRAWRWVARVG,0.673 ± 0.045
16,GGRCAERSDWCG,0.647 ± 0.016
17,GGRCGSVGRGGA,0.735 ± 0.065
18,GGRFGLGGRLVG,0.658 ± 0.05
19,GGRFPGGGGRRR,0.583 ± 0.06
20,GGRGSAWRWRRG,0.674 ± 0.014
21,GGRLLLLVGFRV,0.583 ± 0.0066
22,GGRPVGRRRPGA,0.671 ± 0.031
23,GGRQTAVSGLLL,0.685 ± 0.017
24,GGRSGVSGVVAG,0.7021 ± 0.0049
25,GGRVKPRGVGVG,0.648 ± 0.016
